These results are taken from article PMC4188734 (Journal of molecular biology, 2014).

Read-outs that look alike come from different tables or passages of the source.

To fix the notation:
B2: Grp94-C (601–754) (domain or fragment, canine, UniProt P41148 601-754, looked up)
chain: SEKTKESREAIEKEFEPLLNWMKDKALKDKIEKAVVSQRLTESPCALVASQYGWSGNMERIMKAQAYQTGKDISTNYYASQKKTFEINPRHPLIKDMLRRVKEDEDDKTVSDLAVVLFETATLRSGYLLPDTKAYGDRIERMLRLSLNIDPDAK
B5: OS-9 ΔMRH (267–666) (domain or fragment, rat, UniProt Q5RKH6 267-666, looked up)
chain: QHEEKVTEEVQDTDHQVWSGSKAAGAPPKKEDVSPTKEDKESEFWKMLQEPEEQATGTEEAQAGEQDLNHEAAADPAPAPPTDFQNNVQVKLIRSPADLIRLIEELKGAEKGKPSVRQEQPGDDTTEAPQREAEAKGKGGEPRGLVEEEDGDEEEEDEDEDEQQLLGEFEKELEGMLLPSDRERLRSEVKAGMERELENIIQETEKELDPEGLRKESEREQAILALTSTLDKLIKRLQESQSPELVQKYKKRRVVPQKPPPSPHPTEEEPEHRVRVRVTKLRHGGPNQDLTVLEMNRENPQLKQIEGLVTEVLEREGLTAEGKIEIKIVRPGAEGKEEDTRWLTDEDTRNLKEIFFNILVQGAEEANKERQRQSELESNYRRVWGSPGGEDTGDLDEFDF

Experiment in all cases: ITC
In one test the target is T1, OS-9 ΔMRH (Homo sapiens, UniProt Q13438).
T1 chain: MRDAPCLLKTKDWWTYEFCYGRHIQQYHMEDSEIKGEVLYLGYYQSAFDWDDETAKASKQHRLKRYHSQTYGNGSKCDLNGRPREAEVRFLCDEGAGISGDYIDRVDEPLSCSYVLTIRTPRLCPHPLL

The test “OS-9 ΔMRH (267–666)” addresses B5.
The target of test [1] is T2, His-Grp94-MC (337–765) (canine, UniProt P41148 337-765).
Another test concerns the target Grp94-M (337–594) (canine, UniProt P41148 337-594).
The test “Grp94-C (601–754)” concerns the target B2.
The target of another test is T3, OS-9 CTE (Homo sapiens, UniProt Q13438).
T3 chain: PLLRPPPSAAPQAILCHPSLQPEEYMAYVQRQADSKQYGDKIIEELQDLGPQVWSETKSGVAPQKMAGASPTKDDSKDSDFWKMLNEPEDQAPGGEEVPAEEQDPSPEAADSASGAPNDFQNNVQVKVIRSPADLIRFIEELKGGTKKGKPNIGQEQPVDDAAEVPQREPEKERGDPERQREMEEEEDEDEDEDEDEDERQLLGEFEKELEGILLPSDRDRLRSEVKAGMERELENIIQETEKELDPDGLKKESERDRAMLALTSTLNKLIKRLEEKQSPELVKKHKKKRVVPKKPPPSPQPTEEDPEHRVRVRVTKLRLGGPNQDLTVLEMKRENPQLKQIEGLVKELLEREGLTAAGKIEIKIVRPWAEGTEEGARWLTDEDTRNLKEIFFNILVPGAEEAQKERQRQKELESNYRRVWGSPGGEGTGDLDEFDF

The target in test [2] is T2, His-Grp94-MC (337–765). This is another data set of the same source.

B1: Grp94 C domain (protein)
chain: EGVKFDESEKTKESREAIEKEFEPLLNWMKDKALKDKIEKAVVSQRLTESPCALVASQYGWSGNMERIMKAQAYQTGKDISTNYYASQKKTFEINPRHPLIKDMLRRVKEDEDDKTVSDLAVVLFETATLRSGYLLPDTKAYGDRIERMLRLSLNIDPDAKVEEEPEEEPEE
Regarding B1, binding with OS-9 ΔMRH was characterised by a dissociation constant (Kd) of 24 µM.
Turning to B2, in the test with OS-9 ΔMRH (267–666), the dissociation constant Kd was found to be 24.6 ± 1.7 µM, the dH is -14 ± 0.7 kcal/mol and the “stoichiometry N” value was 1 ratio of Grp94 dimer to the OS-9 hexamer.

B3: OS-9 CTE (589–666) (domain or fragment, rat, UniProt Q5RKH6 589-666, looked up)
chain: KIEIKIVRPGAEGKEEDTRWLTDEDTRNLKEIFFNILVQGAEEANKERQRQSELESNYRRVWGSPGGEDTGDLDEFDF
As for B3, in the test with His-Grp94-MC (337–765) [1], the affinity, expressed as Kd, was 22.4 ± 2 µM; the dH was -11.6 ± 1 kcal/mol; the “stoichiometry N” value is 2.7 ratio of Grp94 dimer to the OS-9 hexamer. In addition, in the test with Grp94-M (337–594), the dissociation constant (Kd) was determined as 14.3 ± 2.1 µM, the dH was -9.1 ± 1 kcal/mol and the “stoichiometry N” value was 3.4 ratio of Grp94 monomer to the OS-9 hexamer. Also, in the test with Grp94-C (601–754), the Kd is 15 ± 1.1 µM, the dH is -33 ± 1.7 kcal/mol and the “stoichiometry N” value was 2.9 ratio of Grp94 dimer to the OS-9 hexamer.

B4: Grp94 MC domains (protein)
chain: NDIKPIWQRPSKEVEDDEYKAFYKSFSKESDDPMAYIHFTAEGEVTFKSILFVPTSAPRGLFDEYGSKKSDYIKLYVRRVFITDDFHDMMPKYLNFVKGVVDSDDLPLNVSRETLQQHKLLKVIRKKLVRKTLDMIKKIADEKYNDTFWKEFGTNIKLGVIEDHSNRTRLAKLLRFQSSHHPSDITSLDQYVERMKEKQDKIYFMAGSSRKEAESSPFVERLLKKGYEVIYLTEPVDEYCIQALPEFDGKRFQNVAKEGVKFDESEKTKESREAIEKEFEPLLNWMKDKALKDKIEKAVVSQRLTESPCALVASQYGWSGNMERIMKAQAYQTGKDISTNYYASQKKTFEINPRHPLIKDMLRRVKEDEDDKTVSDLAVVLFETATLRSGYLLPDTKAYGDRIERMLRLSLNIDPDAKVEEEPEEEPEE
Molecule B4 came in with a Kd in the test with OS-9 CTE of 22 µM. In the test with OS-9 ΔMRH (267–666), the dH was -7.2 ± 2.3 kcal/mol and the “stoichiometry N” value is 0.15 ratio of Grp94 dimer to the OS-9 hexamer.
B5 showed an equilibrium dissociation constant (Kd) in the test with His-Grp94-MC (337–765) [2] of 8.4 ± 2.3 µM.

B6: Grp94 M domain (protein)
chain: NDIKPIWQRPSKEVEDDEYKAFYKSFSKESDDPMAYIHFTAEGEVTFKSILFVPTSAPRGLFDEYGSKKSDYIKLYVRRVFITDDFHDMMPKYLNFVKGVVDSDDLPLNVSRETLQQHKLLKVIRKKLVRKTLDMIKKIADEKYNDTFWKEFGTNIKLGVIEDHSNRTRLAKLLRFQSSHHPSDITSLDQYVERMKEKQDKIYFMAGSSRKEAESSPFVERLLKKGYEVIYLTEPVDEYCIQALPEFDGKRFQNVAKE
In turn, B6 displayed a dissociation constant (Kd) in the test with OS-9 ΔMRH of 25 µM. This molecule also showed a Kd in the test with OS-9 CTE of 14 µM. Also, in the test with OS-9 ΔMRH (267–666), the Kd came to 25.4 ± 2.6 µM, the dH is -3.3 ± 0.1 kcal/mol and the “stoichiometry N” value was 2.8 ratio of Grp94 monomer to the OS-9 hexamer.
